Measured values published in patent US20120164123.

Biological target: human neutrophil peptide-1 (HNP-1)
Sequence (chain, as listed by the source): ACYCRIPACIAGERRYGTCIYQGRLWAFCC

B1: arginine-specific mono-ADP-ribosyltransferase-1 (ART1), mART1 released from transfected NMU cells (protein)
chain: QSYSISQLDIFSQETPLDMAPASFDDQYAGCLADMTAALPDLNHSEFQANKVYADGWAQANNQWQERRAWGSVWGSLPPSPPGFRDEHGVALLAYTANSPLHKEFNAAVREAGRSRAHYLHHFSFKTLHFLLTEALQLLRSHRSRGCQQVYRGVHGLRFRPAGPGATVRLGGFASASLKNVAAQQFGEDTFFGIWTCLGAPIRGYSFFPEEEEVLIPPFETFQVINTSRPTQGPARIYLRALGKRSTYNCEYIKEKKCRSGPCWLGSS
- ADP-ribosylation of HNP-1 by ART1 in vitro (RP-HPLC and MS of the reaction products): HNP-1 was ADP-ribosylated in vitro using purified ART1
